Laboratory results as given in FireProtDB (doi:10.1021/bi5005975).
Values joined by “and” are separate entries in the source; they are usually repeats but may differ in a detail not shown here. Equal values may be shown once.

Conditions: Amphitrite ornata, pH 7, transition: 2, reversible: yes, whole UniProt chain shown; for denaturant midpoint (higher = more stable) / unfolding free energy: 20 °C; for Tm / unfolding enthalpy (calorimetric) / unfolding enthalpy (van 't Hoff): Thermal
[1] = GdnHCl, UV?visible spectrophotometer, potassium phosphate 100 mM
[2] = Urea, UV?visible spectrophotometer, potassium phosphate 100 mM
[3] = DSC, degassed buffer (potassium phosphate) 100 mM

Row | Protein | denaturant midpoint (higher = more stable) [1] [M] | unfolding free energy [1] [kcal/mol] | denaturant midpoint (higher = more stable) [2] [M] | unfolding free energy [2] [kcal/mol] | Tm [3] | unfolding enthalpy (calorimetric) [3] | unfolding enthalpy (van 't Hoff) [3] | Tm (UV?visible spectrophotometer, potassium phosphate 100 mM) [°C]
1 | wild type, Q9NAV7 (protein) MGFKQDIATLRGDLRTYAQDIFLAFLNKYPDEKRNFKNYVGKSDQELKSMAKFGDHTEKVFNLMMEVADRATDCVPLASDASTLVQMKQHSGLTTGNFEKLFVALVEYMRASGQSFDSQSWDRFGKNLVSALSSAGMK | 1.09 | 2.21 | 4.12 | 2.42 | 47.7 °C and 48.6 °C | 165 kcal/mol and 166 kcal/mol | 336 kcal/mol and 396 kcal/mol | 46
2 | wild type, Q9NAV8 (protein) MGFKQDIATIRGDLRTYAQDIFLAFLNKYPDERRYFKNYVGKSDQELKSMAKFGDHTEKVFNLMMEVADRATDCVPLASDANTLVQMKQHSSLTTGNFEKLFVALVEYMRASGQSFDSQSWDRFGKNLVSALSSAGMK | – | – | – | – | 50.5 °C and 49.8 °C | 183 kcal/mol and 163 kcal/mol | 384 kcal/mol and 412 kcal/mol | –
